One test has as its target T1, human CCR2 (human, UniProt P41597 1-374).
T1 construct: whole, on cells
Description: FACS binding on CHO cells expressing human CCR2, anti-cmyc detection. As to the method: (§1) Specificity for the hCX3CR1 receptor was evaluated by performing a FACS binding experiment on CHO-K1 parental cells or CHO cells expressing human CCR2, human CCR5 or mouse CX3CR1. The VHHs were incubated with the respective cell lines for 30 minutes at 4° C. followed by three wash steps and subsequently incubated with the detection reagents. As detection, a mouse anti-cmyc antibody (Serotec, MCA2200) followed by a goat anti-mouse antibody coupled to PE (Jackson 115-116-071) was used, each incubation was for 30 minutes at 4° C. and was followed by three wash steps. For each cell line a quality control with receptor-specific antibody was included. In addition, the highest concentration of each VHH was also incubated with CHO cells expressing hCX3CR1 as a positive control. No binding to mouse CX3CR1, human CCR2 or human CCR5 could be observed.
In general terms: A flow cytometer gives signals particle by particle.

Another test concerns the target T2, human CCR5 (human, UniProt P51681 1-352).
T2 construct: whole, on cells
Description: FACS binding on CHO cells expressing human CCR5, anti-cmyc detection. The procedure:
as §1

In another test the target is T3, mouse CX3CR1 (mouse, UniProt Q9Z0D9 1-354).
T3 construct: whole, on cells
T3 sequence (looked up): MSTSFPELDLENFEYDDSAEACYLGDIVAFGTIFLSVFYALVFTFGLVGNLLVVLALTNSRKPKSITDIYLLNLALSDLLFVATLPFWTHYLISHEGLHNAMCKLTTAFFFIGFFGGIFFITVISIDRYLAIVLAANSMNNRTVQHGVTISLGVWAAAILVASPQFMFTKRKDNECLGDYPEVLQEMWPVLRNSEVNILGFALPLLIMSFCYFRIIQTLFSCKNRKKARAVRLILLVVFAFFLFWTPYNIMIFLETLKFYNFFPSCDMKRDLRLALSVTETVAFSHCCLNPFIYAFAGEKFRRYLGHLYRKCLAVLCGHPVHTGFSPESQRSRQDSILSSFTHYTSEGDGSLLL
Description: FACS binding on CHO cells expressing mouse CX3CR1, anti-cmyc detection. The procedure:
as §1

Test [1] addresses T4, human CX3CR1 (human, UniProt P49238 1-355).
T4 construct: Presented on BA/F3-hCX3CR1, CHO-hCX3CR1 or HEK 293-hCX3CR1 cells, depending on the assay; also called hCX3CR1
T4 sequence (looked up): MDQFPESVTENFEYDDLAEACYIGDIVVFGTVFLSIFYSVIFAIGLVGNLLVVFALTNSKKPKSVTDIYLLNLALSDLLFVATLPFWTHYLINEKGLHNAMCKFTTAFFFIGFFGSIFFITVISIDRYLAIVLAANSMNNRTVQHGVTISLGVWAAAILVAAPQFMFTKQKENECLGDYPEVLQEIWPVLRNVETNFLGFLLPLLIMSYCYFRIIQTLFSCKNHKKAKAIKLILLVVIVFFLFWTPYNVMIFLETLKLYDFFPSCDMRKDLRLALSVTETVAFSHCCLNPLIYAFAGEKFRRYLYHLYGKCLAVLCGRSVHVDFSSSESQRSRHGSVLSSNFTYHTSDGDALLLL
As to the kind of experiment: competition FACS against labeled fractalkine, HEK 293-hCX3CR1 cells.

Test [2] concerns the target T4, human CX3CR1. As to the kind of experiment: competition FACS against labeled fractalkine, CHO-hCX3CR1 cells. The procedure: Periplasmic extracts were screened in a human CX3CR1/human fractalkine FACS competition assay to assess the ability of the expressed VHHs to block the binding of the unique CX3CR1 ligand to the receptor. Human CX3CR1 was presented on CHO cells. As a detection reagent fractalkine (R&D Systems, Minneapolis, Minn., USA) labeled with Alexa Fluor 647 (A647-Fractalkine) at a degree of labeling of 1 was used. In brief, 50 μl of periplasmic extract was added to 6 nM labeled fractalkine (50 μl) and 2E5 CHO-hCX3CR1 cells. After one hour incubation at 4° C., cells were washed three times before analysis on a FACS Array (Becton Dickinson). First a gate was set on the intact cells as determined from the scatter profile. Next, dead cells were gated out by their fluorescence profile from the PI stain (Sigma, St Louis, US). The fluorescence profile from the Alexa Fluor 647 label was determined for each sample and used for the calculation of blocking capacity. As controls, conditions were taken along where there was no VHH present in the periplasmic extract or a known irrelevant VHH and samples were included with excess cold fractalkine. For each sample the percentage block was determined using the control samples to determine the assay window. […]

Test [3] concerns the target T4, human CX3CR1. As to the kind of experiment: competition FACS against labeled fractalkine, BA/F3-hCX3CR1 cells.

T2 sequence (P51681 whole entry): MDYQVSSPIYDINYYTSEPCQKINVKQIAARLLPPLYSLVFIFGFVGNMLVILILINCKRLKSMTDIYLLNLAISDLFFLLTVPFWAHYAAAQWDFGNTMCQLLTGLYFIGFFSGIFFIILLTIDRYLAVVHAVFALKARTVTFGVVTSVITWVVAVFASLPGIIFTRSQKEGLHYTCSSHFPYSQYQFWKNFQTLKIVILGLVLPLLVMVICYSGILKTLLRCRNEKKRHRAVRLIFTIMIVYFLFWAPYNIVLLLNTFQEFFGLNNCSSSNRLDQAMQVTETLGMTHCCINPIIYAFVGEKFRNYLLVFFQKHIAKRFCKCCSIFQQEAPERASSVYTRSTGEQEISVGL
T1 sequence (P41597 whole entry): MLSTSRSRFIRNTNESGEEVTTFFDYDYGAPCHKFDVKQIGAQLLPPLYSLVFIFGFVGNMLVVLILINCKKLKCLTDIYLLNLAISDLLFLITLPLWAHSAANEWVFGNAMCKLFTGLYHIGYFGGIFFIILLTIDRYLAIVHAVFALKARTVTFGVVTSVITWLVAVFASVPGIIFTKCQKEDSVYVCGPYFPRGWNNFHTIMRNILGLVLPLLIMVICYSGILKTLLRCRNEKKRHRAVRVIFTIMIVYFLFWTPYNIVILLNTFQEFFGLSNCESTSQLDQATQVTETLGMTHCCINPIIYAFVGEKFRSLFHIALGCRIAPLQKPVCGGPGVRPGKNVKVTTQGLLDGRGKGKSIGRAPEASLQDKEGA

B1: CX3CR1BII316 (VHH)
VHH: EVQLVESGGGSVQAGESLRLSCAASGSIFSSNAMAWYRQAPPGKQRDLVALINSVGITKYADSVKGRFTISSDNAKNTVYLEMNSLKPEDTAVYYCTSDGRRGWDTRYWGQGTQVTVSS
notes: Expressed in E. coli TG1 as c-myc, His6-tagged protein
As a reminder, the IC50 is the concentration at which inhibition is half-maximal. B1: the binding result in the test with human CCR2, with human CCR5 and with mouse CX3CR1 was “no binding” in each case. For the same molecule, in the test with human CX3CR1 [1], the “% Block” value was determined as 94%. In the test with human CX3CR1 [1], the IC50 was found to be 5.3 nM.

B2: CX3CR1BII318 (VHH)
chain: EVQLVESGGGSVQAGESLRLSCAASGSIFSSNAMAWYRQAPGKRRDLVAAINSVGVTKYADSVKGRFTISRDNAKNTVYLQMNSLKPEDTAVYYCTSDPRRGWDTRYWGQGTQVTVSSGGGGSGGGGSGGGGSGGGGSGGGGSGGGGSGGGGSEVQLVESGGGSVQAGESLRLSCAASGSIFSSNAMAWYRQAPGKRRDLVAAINSVGVTKYADSVKGRFTISRDNAKNTVYLQMNSLKPEDTAVYYCTSDPRRGWDTRYWGQGTQVTVSSAAAEQKLISEEDLNGAAHHHHHH
notes: Bivalent VHH (single polypeptide chain)
For the molecule B2, the binding result in the test with human CCR2, with human CCR5 and with mouse CX3CR1 was “no binding” each time. Also, the “% Block” value with human CX3CR1 [1] turned out to be 102%. The molecule further showed an IC50 in the test with human CX3CR1 [1] of 0.3 nM.

B3: CX3CR1BII317 (VHH)
chain: EVQLVESGGGLVQAGGSLRLSCVASGRTFSSYAMGWFRQAPGKERAFVAGISGSASRKYYADSVKGRFTVSRDNARNTVYLQMNSLKPEDTAVYYCAASNSYPKVQFDYYGQGTLVTVSSGGGGSGGGGSGGGGSGGGGSGGGGSGGGGSGGGGSEVQLVESGGGLVQAGGSLRLSCVASGRTFSSYAMGWFRQAPGKERAFVAGISGSASRKYYADSVKGRFTVSRDNARNTVYLQMNSLKPEDTAVYYCAASNSYPKVQFDYYGQGTLVTVSSAAAEQKLISEEDLNGAAHHHHHH
notes: as for B2
In the case of B3, the half-inhibitory concentration (IC50) in the test with human CX3CR1 [2] is 3.4 nM. In addition, the binding result with human CCR2, with human CCR5 and with mouse CX3CR1 was “no binding” throughout.

B4: CX3CR1BII315 (VHH)
VHH: EVQLVESGGGLVQAGGSLRLSCVASGRTFSSYAMGWFRQAPGKERAFVAGISGSASRKYYADSVKGRFTVSRDNARNTVYLQMNSLKPEDTAVYYCAASNSYPKVQFDYYGQGTQVTVSS
notes: as for B1
For B4, the binding result with human CCR2, with human CCR5 and in the test with mouse CX3CR1 was “no binding” throughout. Also, in the test with human CX3CR1 [3], the IC50 is 8.1 nM.

B5: CX3CR1BII66B02 (VHH)
VHH: EVQLVESGGGSVQAGESLRLSCAASGSIFSSNAMAWYRQAPGKRRDLVAAINSVGVTKYADSVKGRFTISRDNAKNTVYLQMNSLKPEDTAVYYCTSDPRRGWDTRYWGQGTQVTVSS
notes: as for B1
As for B5, the binding result in the test with human CCR2, in the test with human CCR5 and with mouse CX3CR1 was “no binding” throughout. The “% Block” value with human CX3CR1 [1] amounted to 102%. The molecule also registered an IC50 in the test with human CX3CR1 [1] of 2.5 nM.

B6: CX3CR1BII18E06 (VHH)
VHH: KVQLVESGGGLVQPGGSLRLSCATSGTIFSNNAMGWYRQAPGKKRDLVASISSSGSTNYADSVKGRFTVSRDNDKNTGYLQMNSLKPEDTGVYYCTLDARRGWNTAYWGQGAQVTVSS
notes: as for B1
Consider B6, for which the binding result with human CCR2, with human CCR5 and with mouse CX3CR1 was “no binding” in each case. The molecule further came in with an IC50 with human CX3CR1 [3] of 2.8 nM.

These data come from patent US20150056133A1 (Boehringer Ingelheim, published 2015).
